Target: Flag-53BP1 (human, UniProt Q12888 1-1972)
Test: pull-down

Sequence of Flag-53BP1 (Q12888 whole entry): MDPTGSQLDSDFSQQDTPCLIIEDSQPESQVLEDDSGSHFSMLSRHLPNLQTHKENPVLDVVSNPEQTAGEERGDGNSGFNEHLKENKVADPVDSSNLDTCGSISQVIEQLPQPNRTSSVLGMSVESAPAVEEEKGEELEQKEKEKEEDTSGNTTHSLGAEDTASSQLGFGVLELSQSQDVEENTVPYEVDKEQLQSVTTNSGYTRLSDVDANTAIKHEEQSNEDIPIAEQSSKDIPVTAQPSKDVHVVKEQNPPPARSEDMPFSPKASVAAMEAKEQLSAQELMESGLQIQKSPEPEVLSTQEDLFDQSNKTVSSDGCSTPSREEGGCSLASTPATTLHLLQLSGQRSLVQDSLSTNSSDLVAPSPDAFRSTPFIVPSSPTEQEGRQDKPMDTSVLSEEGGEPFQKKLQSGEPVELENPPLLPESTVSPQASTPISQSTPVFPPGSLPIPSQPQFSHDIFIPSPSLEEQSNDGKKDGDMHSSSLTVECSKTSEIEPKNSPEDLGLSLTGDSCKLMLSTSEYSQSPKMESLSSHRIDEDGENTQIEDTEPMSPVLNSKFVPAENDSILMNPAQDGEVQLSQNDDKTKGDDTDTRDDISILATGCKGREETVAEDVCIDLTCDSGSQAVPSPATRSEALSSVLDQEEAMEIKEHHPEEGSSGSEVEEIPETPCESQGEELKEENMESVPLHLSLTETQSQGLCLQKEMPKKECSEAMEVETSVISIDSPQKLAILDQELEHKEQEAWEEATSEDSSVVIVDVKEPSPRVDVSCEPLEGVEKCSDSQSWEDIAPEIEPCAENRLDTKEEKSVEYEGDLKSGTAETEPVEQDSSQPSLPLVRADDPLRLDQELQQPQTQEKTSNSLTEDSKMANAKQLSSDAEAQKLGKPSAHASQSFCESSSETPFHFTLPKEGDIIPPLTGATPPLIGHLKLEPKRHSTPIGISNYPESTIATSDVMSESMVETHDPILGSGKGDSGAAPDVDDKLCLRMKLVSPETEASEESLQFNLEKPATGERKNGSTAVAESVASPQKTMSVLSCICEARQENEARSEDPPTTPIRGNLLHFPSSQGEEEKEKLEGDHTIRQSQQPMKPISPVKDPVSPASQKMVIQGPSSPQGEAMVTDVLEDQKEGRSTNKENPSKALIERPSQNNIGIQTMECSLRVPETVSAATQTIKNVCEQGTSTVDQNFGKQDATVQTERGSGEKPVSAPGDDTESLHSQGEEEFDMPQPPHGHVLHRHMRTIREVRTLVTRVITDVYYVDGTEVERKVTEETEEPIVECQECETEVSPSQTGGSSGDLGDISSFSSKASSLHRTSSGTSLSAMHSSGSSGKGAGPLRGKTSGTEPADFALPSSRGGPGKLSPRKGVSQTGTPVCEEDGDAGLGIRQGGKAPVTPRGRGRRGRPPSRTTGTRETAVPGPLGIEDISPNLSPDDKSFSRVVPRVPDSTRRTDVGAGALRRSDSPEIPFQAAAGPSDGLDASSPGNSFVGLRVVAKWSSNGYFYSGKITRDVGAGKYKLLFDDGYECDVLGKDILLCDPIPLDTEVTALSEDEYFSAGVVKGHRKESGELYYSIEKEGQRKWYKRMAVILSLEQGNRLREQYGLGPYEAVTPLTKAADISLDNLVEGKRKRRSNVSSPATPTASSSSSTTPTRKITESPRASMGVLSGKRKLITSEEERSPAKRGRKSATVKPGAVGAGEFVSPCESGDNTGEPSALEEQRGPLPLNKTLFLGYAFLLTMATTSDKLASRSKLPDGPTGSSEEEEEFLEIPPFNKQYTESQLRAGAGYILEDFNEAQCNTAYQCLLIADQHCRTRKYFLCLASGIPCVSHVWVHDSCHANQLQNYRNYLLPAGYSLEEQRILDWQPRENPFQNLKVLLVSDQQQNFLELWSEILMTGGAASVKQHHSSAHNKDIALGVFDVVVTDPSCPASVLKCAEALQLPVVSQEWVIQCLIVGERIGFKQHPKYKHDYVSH

- binding result: binds
B1: GST-TPX2 (natural protein)
chain: MSQVKSSYSYDAPSDFINFSSLDDEGDTQNIDSWFEEKANLENKLLGKNGTGGLFQGKTPLRKANLQQAIVTPLKPVDNTYYKEAEKENLVEQSIPSNACSSLEVEAAISRKTPAQPQRRSLRLSAQKDLEQKEKHHVKMKAKRCATPVIIDEILPSKKMKVSNNKKKPEEEGSAHQDTAEKNASSPEKAKGRHTVPCMPPAKQKFLKSTEEQELEKSMKMQQEVVEMRKKNEEFKKLALAGIGQPVKKSVSQVTKSVDFHFRTDERIKQHPKNQEEYKEVNFTSELRKHPSSPARVTKGCTIVKPFNLSQGKKRTFDETVSTYVPLAQQVEDFHKRTPNRYHLRSKKDDINLLPSKSSVTKICRDPQTPVLQTKHRARAVTCKSTAELEAEELEKLQQYKFKARELDPRILEGGPILPKKPPVKPPTEPIGFDLEIEKRIQERESKKKTEDEHFEFHSRPCPTKILEDVVGVPEKKVLPITVPKSPAFALKNRIRMPTKEDEEEDEPVVIKAQPVPHYGVPFKPQIPEARTVEICPFSFDSRDKERQLQKEKKIKELQKGEVPKFKALPLPHFDTINLPEKKVKNVTQIEPFCLETDRRGALKAQTWKHQLEEELRQQKEAACFKARPNTVISQEPFVPKKEKKSVAEGLSGSLVQEPFQLATEKRAKERQELEKRMAEVEAQKAQQLEEARLQEEEQKKEELARLRRELVHKANPIRKYQGLEIKSSDQPLTVPVSPKFSTRFHC
